From doi:10.1101/2021.03.09.434688 come the findings set out here.

Test [1] concerns the target MP variants with one or two Glu-to-Ala mutations. Description: fluorescence polarisation. (In general: Fluorescence polarisation rises when a labelled molecule tumbles more slowly, as on binding a larger partner.)
Test [2] deals with fluorophore-labeled core peptide Fl_PsnA2(28-38). Description: fluorescence polarisation.
Test [3] deals with fluorophore-labeled minimal precursor peptide Fl_PsnA2(14-38). The test can be described thus: fluorescence polarisation.
Test [4] has as its target PsnB. Description: crystal structure.

Several values for one entry are separate records, joined by “and”; a condition that tells them apart may be missing. Equal entries are not always repeated.

Turning to PsnB (enzyme), the fold reduction of the affinity against MP in test [1] was 10 fold and 4 fold. Besides, in test [2], the Kd (usually the equilibrium constant for the complex coming apart) was above 100 µM. Also, in test [3], the fold enhancement of the interaction with ADP (1 mM) against no nucleotide is 9 fold, the fold enhancement of the interaction with AMPPNP (1 mM) against no nucleotide worked out at 2 fold and the fold tighter binding than the LP (Fl LP) was 6 fold. Also, the stoichiometry N – broadly, a count of units in the complex or per binding partner – in test [4] stood at 2.

With leader-fused PsnB (enzyme), the Kd in test [2] worked out at 11 µM.
